≈ marks a conversion by molar mass, not a printed value.

Series [1] deals with all three bacteria tested. Briefly: Antimicrobial testing, statement for all three bacteria tested. The class given is cell-based. As to the method: (§1) All three different heat incubated GDA samples were tested as antimicrobial agents with several different industrially relevant bacteria. The General Aerobic Bacteria isolated and used for this testing were identified as Pseudomonas aeruginosa and Enterobacter aggolomerans. Wild strain Sulfate Reducing Bacteria and Acid Producing Bacteria isolated from the produced fluids was also used. They were placed in a microtiter plate, where a high throughput test can be performed to determine MIC (minimum inhibitor concentration). Samples were tested at the following doses (1000, 500, 250, 125, 62.5, 31.2, 15.6, 7.8, 3.9, and 1.95ppm) and concentration was calculated based on the initial GDA concentration (15 w/v %).
(§2) The antimicrobial testing results shown in FIG. 49 summarizes the MIC of each sample for different bacteria.

For series [2], the system named is General Wild Strain Bacteria. Briefly: Microtiter MIC study, general wild strain bacteria. In kind it is cell-based, Pseudomonas aeruginosa and Enterobacter aggolomerans. As to conditions: 24 hours of incubation; concentration based on initial GDA concentration. As to the method: as §1, §2
Series [3] relates to APB (Acid Producing Bacteria). Briefly: Microtiter MIC study, acid producing bacteria. In kind it is cell-based, Acid Producing Bacteria isolated from the produced fluids. The settings on record: 24 hours of incubation; concentration based on initial GDA concentration. As to the method: as §1, §2
Series [4] in a line: Glucarate dehydratase reaction with gluconate or glucuronate as substrate. In kind it is biochemical. As to conditions: 0.01% w/v GlucD, 10 mM substrate, pH 7.5, 24 hours. As to the method:
(§3) A 100 μL volume was prepared containing 0.01% w/v Escherichia coli glucarate dehydratase (GlucD), 10 mM substrate (glucarate, gluconate, or glucuronate), 50 mM potassium phosphate, pH 7.5, 5 mM MgSO4, and 100 mM NaCl. The reaction was allowed to proceed for 24 hours and consumption of glucaric acid was monitored via LCMS at 0, 5mins, 20 mins, 1 hr, 2 hrs, and 24 hours. Full conversion of glucarate was observed within 20 minutes. […] The reaction is schematized in FIG. 36 and the results are graphed in Figure

Series [5] is described as follows: Glucarate dehydratase reaction on glucarate monitored via LCMS. In kind it is biochemical. The settings on record: pH 7.5. How it is done:
as §3
To determine optimal enzyme loading, a 100 μL volume was prepared containing 0.001, 0.002, 0.005, or 0.01% w/v glucarate dehydratase (GlucD), 10% w/v glucarate, 50 mM potassium phosphate, pH 7.5, 5 mM MgSO4, and 100 mM NaCl. The reaction was allowed to proceed for 74 hours and formation of 4-deoxy-5-keoglucarate and consumption of glucarate was monitored via reverse phase LCMS. […] The reaction is schematized in FIG. 36 and the results are graphed in FIG. 40.

For series [6] the following is noted: Table 4; previously characterized POX enzymes; cited from earlier work.
Series [7] in a line: Specific activity of pyranose oxidase (POX) enzymes. In kind it is biochemical. The settings on record: Table 4; unit = 1 umol of substrate consumed min^−1. The text has this: POX is a flavin-dependent enzyme found in lignocellulose-degrading fungi that oxidizes glucose to 2-ketoglucose concomitantly with hydrogen peroxide formation. Recombinant Trametes hirsuita POX is currently used in the food industry for baking, providing some evidence that the enzyme can be produced at low cost. A unit is defined as 1 umol of substrate consumed min^−1. Based on an in-house empirical evaluation, the Irpex lacteus, Trametes multicolor, and Phanerochaete chrysosporium POXs have sufficient starting activity. This is presented graphically in FIG. 32 and Table 4.

For `Oc1ccc(O)c(O)c1O` (single isomer, unassigned) [1,2,3,4-tetrahydroxybenzene], the “antimicrobial activity (in words)” value in series [1] is given as “good antimicrobial activity”.

Consider `O=CCCCC=O` [Glutaraldehyde - 50%, Glutaraldehyde], for which the results for the minimum inhibitory concentration (MIC) in series [2] and in series [3] were 1000 µg/mL (≈ 9.99 mM) and 500 µg/mL (≈ 4.99 mM), respectively.

In the case of “GlucD: Escherichia coli glucarate dehydratase”, the “reaction with gluconic or glucuronic acid as substrate” value in series [4] is “No reaction was observed”. The “time to full conversion of glucarate” value in series [5] (0.005% enzyme, 10% w/v glucarate) was ≤ 24 h; in series [5] (0.01% w/v GlucD, 10 mM glucarate), ≤ 0.333 h.

Take “Irpex lacteus: POX enzyme of Irpex lacteus”: the “Specific Activity (previously characterized)” value in series [6] was “evaluation), 86 U mg^−1”. The “Specific Activity (in-house evaluation)” value in series [7] was 6.0 (in-house U mg^−1.

As for “Trametes multicolor: POX enzyme of Trametes multicolor”, the “Specific Activity (in-house evaluation)” value in series [7] is reported as 6.8 (in-house U mg^−1.

B1: Lyophyllum shimeji: POX enzyme of Lyophyllum shimeji (protein, UniProt Q75ZP8 1-618, looked up)
Pyranose 2-oxidase: MSLSTEQMLRDYPRSMQINGQIPKNAIHETYGNDGVDVFIAGSGPIGATYAKLCVEAGLRVVMVEIGAADSFYAVNAEEGTAVPYVPGYHKKNEIEFQKDIDRFVNVIKGALQQVSVPVRNQNVPTLDPGAWSAPPGSSAISNGKNPHQREFENLSAEAVTRGVGGMSTHWTCSTPRIHPPMESLPGIGRPKLSNDPAEDDKEWNELYSEAERLIGTSTKEFDESIRHTLVLRSLQDAYKDRQRIFRPLPLACHRLKNAPEYVEWHSAENLFHSIYNDDKQKKLFTLLTNHRCTRLALTGGYEKKIGAAEVRNLLATRNPSSQLDSYIMAKVYVLASGAIGNPQILYNSGFSGLQVTPRNDSLIPNLGRYITEQPMAFCQIVLRQEFVDSVRDDPYGLPWWKEAVAQHIAKNPTDALPIPFRDPEPQVTTPFTEEHPWHTQIHRDAFSYGAVGPEVDSRVIVDLRWFGATDPEANNLLVFQNDVQDGYSMPQPTFRYRPSTASNVRARKMMADMCEVASNLGGYLPTSPPQFMDPGLALHLAGTTRIGFDKATTVADNNSLVWDFANLYVAGNGTIRTGFGENPTLTSMCHAIKSARSIINTLKGGTDGKNTGEHRNL
Regarding B1, the “Specific Activity (previously characterized)” value in series [6] is recorded as 1.92 U mg^−1.

As a reminder, the MIC is the least concentration at which growth counts as inhibited. Read a high MIC as a need for much substance.

The record behind these values is US20240368642A1, “COMPOSITIONS AND METHODS FOR PRODUCTION OF VALUE-ADDED CHEMICALS” (Solugen, Inc., priority 2021, published 2024).
